Reference: PMC5817926 (2018)

Target: ubiquitin polyprotein composed of nine identical repeats (Ubi)9 (UniProt P0CG48 1-76)
Test: extended unfolded state at 170 pN force (single-molecule force spectroscopy)

ubiquitin polyprotein composed of nine identical repeats (Ubi)9, sequence (P0CG48 1-684): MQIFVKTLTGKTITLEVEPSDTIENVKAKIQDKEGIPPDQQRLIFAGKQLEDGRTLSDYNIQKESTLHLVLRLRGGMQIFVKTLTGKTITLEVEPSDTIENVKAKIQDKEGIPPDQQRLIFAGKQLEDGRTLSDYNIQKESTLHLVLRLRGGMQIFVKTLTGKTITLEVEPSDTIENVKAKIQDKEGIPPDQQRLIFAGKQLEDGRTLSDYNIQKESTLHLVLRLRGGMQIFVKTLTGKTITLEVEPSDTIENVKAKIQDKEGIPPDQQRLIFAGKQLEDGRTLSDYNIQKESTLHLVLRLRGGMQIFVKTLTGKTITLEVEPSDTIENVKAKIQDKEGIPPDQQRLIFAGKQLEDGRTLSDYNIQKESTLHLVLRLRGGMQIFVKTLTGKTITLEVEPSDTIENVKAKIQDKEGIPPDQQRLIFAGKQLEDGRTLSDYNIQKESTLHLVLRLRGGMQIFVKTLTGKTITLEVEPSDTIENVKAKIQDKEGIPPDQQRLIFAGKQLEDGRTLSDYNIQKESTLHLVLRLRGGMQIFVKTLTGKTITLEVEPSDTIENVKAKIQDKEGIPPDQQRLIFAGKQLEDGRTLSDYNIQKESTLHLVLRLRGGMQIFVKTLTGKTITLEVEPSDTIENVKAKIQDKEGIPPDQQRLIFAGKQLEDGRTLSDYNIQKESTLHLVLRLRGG

koff: 0.0458 s⁻¹
B1: DnaJ (Hsp40) (natural protein)
chain: MAKQDYYEILGVSKTAEEREIRKAYKRLAMKYHPDRNQGDKEAEAKFKEIKEAYEVLTDSQKRAAYDQYGHAAFEQGGMGGGGFGGGADFSDIFGDVFGDIFGGGRGRQRAARGADLRYNMELTLEEAVRGVTKEIRIPTLEECDVCHGSGAKPGTQPQTCPTCHGSGQVQMRQGFFAVQQTCPHCQGRGTLIKDPCNKCHGHGRVERSKTLSVKIPAGVDTGDRIRLAGEGEAGEHGAPAGDLYVQVQVKQHPIFEREGNNLYCEVPINFAMAALGGEIEVPTLDGRVKLKVPGETQTGKLFRMRGKGVKSVRGGAQGDLLCRVVVETPVGLNERQKQLLQELQESFGGPTGEHNSPRSKSFFDGVKKFFDDLTR
